± gives the uncertainty stated by the source.
Assay: protein stability index of a GFP-peptide fusion (yeast GPS) (PSI 1-4); higher = more stable; sorted into four equal gates, so the index is relative within each strain
In short: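 Peptides tiling yeast proteins in 17-residue segments were fused downstream of GFP, with Cherry expressed from the same plasmid. As a pooled library in yeast, mid-log cultures grown in leucine-free medium were sorted into four equal gates by GFP/Cherry fluorescence ratio. Gate plasmids were PCR-amplified and Illumina-sequenced, and barcodes linked reads to strains. Each peptide received a protein stability index equal to the sum of each gate's read frequency times its gate number.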

Row | Sequence | protein stability index (doa10∆) | protein stability index (pdr5∆) | protein stability index (san1∆) | protein stability index (ubr1∆)
1 | NMLLDPAANESEVANNG [RRP42] | 2.05 ± 0.082 | 2.74 ± 0.059 | 2.64 ± 0.083 | 2.34 ± 0.042
2 | VSTLIAGFDPRDDEPKL [PRE6] |  |  | 3.12 ± 0.077 | 
3 | AGSTGFSFGQNNNNTNT [YGR119C/NUP57] | 2.52 ± 0.068 | 2.5 ± 0.072 | 2.32 ± 0.092 | 2.32 ± 0.064
4 | QETEGTNRHTLALETVL [SIR3] | 2.72 ± 0.063 | 2.57 ± 0.054 | 2.53 ± 0.06 | 2.83 ± 0.041
5 | NYTQNIDNLESYAGIST [SIR2] | 2.92 ± 0.059 | 2.96 ± 0.09 | 2.87 ± 0.071 | 3.01 ± 0.044
6 | MFHGAKGPLLIERIGHL [PCI8] | 2.5 ± 0.22 |  |  | 
7 | IVGKSNVLVTMPVAPTM [YMR129W/POM152] | 2.66 ± 0.12 | 2.56 ± 0.08 | 2.07 ± 0.17 | 2.65 ± 0.055
8 | HITSVPISAVLRGCKFL [GRR1] | 1.77 ± 0.044 | 1.66 ± 0.048 | 1.86 ± 0.064 | 2.05 ± 0.037
9 | QINIMPSLKAHFTEIKL [SIR3] | 2.18 ± 0.056 | 2.1 ± 0.054 | 2.29 ± 0.057 | 2.4 ± 0.045
10 | DPKFRRNHKHALHGTAK [RPL29] | 2.34 ± 0.025 | 2.602 ± 0.022 | 2.478 ± 0.024 | 2.636 ± 0.019
11 | SGTDGSTIGILLLTIQL [SRP72] | 3.09 ± 0.064 | 2.91 ± 0.064 | 3.35 ± 0.054 | 3.15 ± 0.057
12 | HWLQLAKGVYRPNGRKD [POP1] | 2.68 ± 0.06 | 3.12 ± 0.049 | 3.2 ± 0.034 | 3.15 ± 0.049
13 | MHRPVHFLQFSELAGDE [PRP8] | 3.23 ± 0.081 | 3.15 ± 0.084 | 2.88 ± 0.059 | 3.05 ± 0.06
14 | ITKLHLDKDRKALIQRK [RPL26A] | 2.1 ± 0.13 | 1.92 ± 0.094 | 2.49 ± 0.16 | 1.51 ± 0.091
15 | HSDMASKMYNTDKKAFL [PRP8] | 2.91 ± 0.057 | 2.65 ± 0.056 | 2.89 ± 0.051 | 2.98 ± 0.059
16 | PTLPTNHNKTKLLKSLK [PRP8] | 2.33 ± 0.07 | 1.6 ± 0.056 | 1.82 ± 0.076 | 2.41 ± 0.057
17 | LNRQNDITDGKDYHTLA [RPS18A] | 3.13 ± 0.069 | 3.33 ± 0.061 | 3.27 ± 0.05 | 3.11 ± 0.06
18 | AILKLLENMPHPWEQAK [PRP8] | 2.76 ± 0.12 | 2.05 ± 0.088 | 1.93 ± 0.13 | 2.16 ± 0.057
19 | FRFQGGIIVAVDSRATA [PRE2] | 1.45 ± 0.063 | 1.54 ± 0.072 | 1.3 ± 0.12 | 1.62 ± 0.078

Row | Sequence | protein stability index (doa10∆) | protein stability index (pdr5∆) | protein stability index (san1∆) | protein stability index (ubr1∆)
20 | LTKFRQKLMQLVVLTDV [RGR1] | 1.26 ± 0.097 | 1.16 ± 0.074 | 1.24 ± 0.18 | 1.13 ± 0.05
21 | TLLYEQIIQRDKINKYS [SNF5] | 3.1 ± 0.08 | 3.35 ± 0.089 | 3.19 ± 0.059 | 2.27 ± 0.072
22 | KCIPKKGTVFQFEIPIS [POP4] | 1.44 ± 0.16 | 1.68 ± 0.087 | 1.49 ± 0.29 | 1.17 ± 0.052
23 | RFELHGDMTNSDAQSNL [REC8] | 2.93 ± 0.27 | 3.58 ± 0.13 | 2.9 ± 0.17 | 3.22 ± 0.095
24 | QFINLAGYKKLGLKFDD [QCR7] | 2.43 ± 0.2 | 3.61 ± 0.14 |  | 
25 | FSFTEPAQKDSSVVSEP [YOR098C/NUP1] | 3.02 ± 0.097 | 3.11 ± 0.1 | 2.81 ± 0.12 | 3.26 ± 0.094
26 | QYATVSKTHKTVSRAYG [RPL34A] | 2.05 ± 0.069 | 2.31 ± 0.055 | 2.41 ± 0.065 | 2.34 ± 0.06
27 | LIHPENFTCNRKILNFK [SWI1] | 2.17 ± 0.069 | 2.49 ± 0.064 | 2.37 ± 0.064 | 2.88 ± 0.075
28 | LGNGVACDPSEIEPILM [RGR1] | 2.06 ± 0.075 | 2.19 ± 0.067 | 3.34 ± 0.071 | 2.91 ± 0.063
29 | QSLNEMVKLIVMLCTLT [YJL039C/NUP192] | 2.52 ± 0.071 | 2.63 ± 0.057 | 2.81 ± 0.11 | 2.27 ± 0.058
30 | FTTLLESKQDGLSILFL [YML103C/NUP188] | 2.53 ± 0.097 | 2.68 ± 0.12 | 2.56 ± 0.096 | 3 ± 0.14
31 | NANDETTAVEDEDDDLD [RPB4] | 3.47 ± 0.1 | 3.13 ± 0.1 | 3.25 ± 0.093 | 3.25 ± 0.092
32 | CRQEFLERVKANAAKRA [RPL21A] |  | 1.33 ± 0.23 |  | 
33 | FIRSTNSWFDVTWRTFT [FAS1] | 1.37 ± 0.12 | 1.14 ± 0.13 |  | 1.34 ± 0.15
34 | LGKKKATVDEFPLCVHL [RPL10] | 3.1 ± 0.19 | 2.67 ± 0.14 | 3 ± 0.29 | 2.71 ± 0.069
35 | EDTPANDSSATRSWRPP [RPB8] | 2.44 ± 0.24 | 2.88 ± 0.18 | 2.47 ± 0.2 | 2.95 ± 0.084
36 | MAFEASAAAAGNRNSSS [BRR2] | 3.12 ± 0.11 | 3.1 ± 0.11 | 2.35 ± 0.12 | 3.14 ± 0.11
37 | TVLESLGRLNKLRKIAI [LIN1] | 2.66 ± 0.057 | 2.69 ± 0.049 | 2.66 ± 0.058 | 2.95 ± 0.035
38 | SFKIFVDVLVISSHSHP [RRP42] | 1.21 ± 0.043 | 1.21 ± 0.047 | 1.19 ± 0.07 | 1.39 ± 0.032

Row | Sequence | protein stability index (doa10∆) | protein stability index (pdr5∆) | protein stability index (san1∆) | protein stability index (ubr1∆)
39 | NKTNNEDLFDDYPSTSL [NUT1] | 2.22 ± 0.078 | 3.09 ± 0.054 | 2.85 ± 0.12 | 1.79 ± 0.061
40 | FPWLNAIKYRPTSVKLL [POP3] | 2.1 ± 0.038 | 2.19 ± 0.046 | 2.26 ± 0.062 | 1.96 ± 0.035
41 | INGWKFESLPLKSAENS [SWP82] | 2.92 ± 0.067 | 3.25 ± 0.053 | 2.9 ± 0.055 | 3.03 ± 0.058
42 | VPNSSDQAELPNNASSH [SNF2] | 2.26 ± 0.13 | 2.85 ± 0.21 |  | 2.74 ± 0.16
43 | YIYSHVNKVPQNVAGDK [SWP82] | 2.79 ± 0.17 | 2.93 ± 0.079 | 2.96 ± 0.08 | 2.97 ± 0.071
44 | KKNLGRLTRLWIKNEQE [PRP8] | 1.72 ± 0.063 | 1.89 ± 0.063 | 1.25 ± 0.19 | 2.5 ± 0.25
45 | SLHNTEKIMENKYPELL [AAR2] | 2.94 ± 0.052 | 3.18 ± 0.058 | 3 ± 0.038 | 2.86 ± 0.034
46 | KTVPFQVNQLQRILEVL [SSN3] | 2.27 ± 0.033 | 2.11 ± 0.031 | 1.63 ± 0.041 | 2.08 ± 0.03
47 | KGLKENDVAVEKTGKSA [BRR2] | 3.03 ± 0.15 |  | 2.73 ± 0.21 | 
48 | IVPIFQLISAVLVSMGS [YJL039C/NUP192] |  | 2.39 ± 0.28 |  | 1.22 ± 0.091
49 | FQHADNSSMRYGYWFDC [AAR2] | 3.06 ± 0.11 | 2.77 ± 0.12 | 2.15 ± 0.089 | 3.14 ± 0.14
50 | NVQLRDVIATEPQGAVT [SMD3] | 2.96 ± 0.069 | 2.98 ± 0.1 | 2.39 ± 0.09 | 2.67 ± 0.071
51 | TAFATEFFVQVLTHESL [DLS1] | 2.47 ± 0.11 | 2.71 ± 0.11 | 2.73 ± 0.088 | 2.02 ± 0.046
52 | SIEFAKREKRVFLKHSL [RPN6] | 3.24 ± 0.16 | 3.4 ± 0.17 | 2.87 ± 0.11 | 2.7 ± 0.098
53 | NQQPQQQQQQQQNPKFL [SWI1] | 2.96 ± 0.048 | 3.02 ± 0.04 | 2.989 ± 0.026 | 2.9 ± 0.029
54 | MGGPKQKGITSYAVSPY [QCR8] | 2.46 ± 0.17 | 2.45 ± 0.2 | 2.25 ± 0.12 | 1.63 ± 0.21
55 | TLPGDDELDQEILNLST [RPT5] | 3.32 ± 0.12 | 3.27 ± 0.12 | 3.58 ± 0.072 | 3.45 ± 0.098
56 | TLEAKIGGLLSKVREEV [RPO31] | 3 ± 0.11 | 3.33 ± 0.11 | 3.6 ± 0.084 | 2.87 ± 0.084
